Measurements: US10836808B2, “Binding-triggered transcriptional switches and methods of use thereof” (The Regents of the University of California, priority 2015, dated 2020)

How the values were obtained:
gamma secretase = test: Chimeric Notch (anti-CD19 scFv/tTA) receiver cell GFP reporter with CD19 sender cells, with or without DAPT; type: cell-based, mouse; conditions: 1 mM DAPT, in the presence of CD19 sender cells
Excerpt: DAPT is a gamma secretase inhibitor. The data are expressed as GFP^+“receiver” cells.

[1] = system: HCT116 colon cancer cells; test: Sensitivity of cancer cell lines to recombinant TRAIL; type: cell-based; conditions: 1 to 200 ng/mL, 24 hours
Procedure: (§1) The cells were then harvested and stained with the live/dead stain, SYTOX Blue (Thermo Scientific #S34857) and the fraction of dead cells was determined by flow cytometry on a BD LSR II.

K562 cells = test: as above; type: cell-based; conditions: 1 to 200 ng/mL, 24 hours
Procedure: as §1

C[C@H](NC(=O)Cc1cc(F)cc(F)c1)C(=O)NC(C(=O)OC(C)(C)C)c1ccccc1 (some centres unmarked) [DAPT]
GFP+ receiver cells (gamma secretase): at control, untreated levels

B1: soluble TRAIL: an inducer of apoptosis and a cancer therapeutic (protein, UniProt P50591 39-281, looked up)
extracellular domain: TNELKQMQDKYSKSGIACFLKEDDSYWDPNDEESMNSPCWQVKWQLRQLVRKMILRTSEETISTVQEKQQNISPLVRERGPQRVAAHITGTRGRSNTLSSPNSKNEKALGRKINSWESSRSGHSFLSNLHLRNGELVIHEKGFYYIYSQTYFRFQEEIKENTKNDKQMVQYIYKYTSYPDPILLMKSARNSCWSKDAEYGLYSIYQGGIFELKENDRIFVSVTNEHLIDMDHEASFFGAFLVG
modifications: extracellular domain
notes: an inducer of apoptosis and a cancer therapeutic
killing of cancer cell line [1]: effective at killing | killing of cancer cell line ([1]; listed as recombinant TRAIL): sensitive to low level TRAIL treatment | induction of apoptosis in cancer cell line (K562 cells): does not induce apoptosis even at high doses | induction of apoptosis in cancer cell line (K562 cells; listed as recombinant TRAIL): insensitive to TRAIL treatment
